Measurements taken from patent US20250171562A1 (ALK ABELL, published 2025).
Blank lines part the entries; values can stand above or below the binder they belong to.

Target: T1, recombinant human IgE (human, UniProt P01854-1 1-428)
T1 construct: made in-house (ALK); preloaded on immobilised FcεRIα in the displacement ELISA
Experiment: IgE-FcεRIα displacement ELISA
Summary of the method: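 sdAbs at pM–μM were incubated 1 h on preformed complexes of 13 ng/ml recombinant human IgE with avi-tag-biotinylated human FcεRIα captured on streptavidin.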

T1 sequence (P01854 other isoform, or with tags, fused parts or gaps): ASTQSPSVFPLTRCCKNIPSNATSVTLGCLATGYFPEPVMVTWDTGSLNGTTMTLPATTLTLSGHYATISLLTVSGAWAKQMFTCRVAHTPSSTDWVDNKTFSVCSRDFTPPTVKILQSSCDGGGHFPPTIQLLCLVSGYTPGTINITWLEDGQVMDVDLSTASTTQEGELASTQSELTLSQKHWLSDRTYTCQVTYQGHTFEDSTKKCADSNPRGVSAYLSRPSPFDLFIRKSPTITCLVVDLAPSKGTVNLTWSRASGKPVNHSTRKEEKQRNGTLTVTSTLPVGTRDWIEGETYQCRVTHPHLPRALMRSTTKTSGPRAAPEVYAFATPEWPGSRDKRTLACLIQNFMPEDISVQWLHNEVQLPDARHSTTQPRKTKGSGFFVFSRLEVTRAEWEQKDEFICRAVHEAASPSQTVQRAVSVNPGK

B2: CIgG4E1A1(G4S)1 (Fc fusion)
chain 1: GPPCPPCPAPEFLGGPSVFLFPPKPKDTLMISRTPEVTCVVVDVSQEDPEVQFNWYVDGVEVHNAKTKPREEQFNSTYRVVSVLTVLHQDWLNGKEYKCKVSNKGLPSSIEKTISKAKGQPREPQVYTLPPCQEEMTKNQVSLWCLVKGFYPSDIAVEWESNGQPENNYKTTPPVLDSDGSFFLYSRLTVDKSRWQEGNVFSCSVMHEALHNHYTQKSLSLSLGKGGGGSDVQLQESGGGLVQAGGSLRLSCLASGRTFTTTSGYNMGWFRQAPGKEREFVAGIKWVSGSNRAYAESVKGRFTISRDNAKNTVYLQMNSLKPEDTAVYYCAAATGQSYVPIREYEYVYWGQGTQVTVS
chain 2: GPPCPPCPAPEFLGGPSVFLFPPKPKDTLMISRTPEVTCVVVDVSQEDPEVQFNWYVDGVEVHNAKTKPREEQFNSTYRVVSVLTVLHQDWLNGKEYKCKVSNKGLPSSIEKTISKAKGQPREPQVCTLPPSQEEMTKNQVSLSCAVKGFYPSDIAVEWESNGQPENNYKTTPPVLDSDGSFFLVSRLTVDKSRWQEGNVFSCSVMHEALHNHYTQKSLSLSLGKGGGGSEVQLLESGGGLVQPGGSLRLSCAASGFTFGNYDMAWVRQAPGKRPEWVSSIDTGGDITHYADSVKGRFTISRDNAKNTLYLQMNSLRPEDTAVYWCATDEEYALGPNEFDYYGQGTLVTVSS
EC50: 30 nM | Max effect: > 95%

B4: CIgG4E1A1(G4S)2 (Fc fusion)
chain 1: GPPCPPCPAPEFLGGPSVFLFPPKPKDTLMISRTPEVTCVVVDVSQEDPEVQFNWYVDGVEVHNAKTKPREEQFNSTYRVVSVLTVLHQDWLNGKEYKCKVSNKGLPSSIEKTISKAKGQPREPQVYTLPPCQEEMTKNQVSLWCLVKGFYPSDIAVEWESNGQPENNYKTTPPVLDSDGSFFLYSRLTVDKSRWQEGNVFSCSVMHEALHNHYTQKSLSLSLGKGGGGSGGGGSDVQLQESGGGLVQAGGSLRLSCLASGRTFTTTSGYNMGWFRQAPGKEREFVAGIKWVSGSNRAYAESVKGRFTISRDNAKNTVYLQMNSLKPEDTAVYYCAAATGQSYVPIREYEYVYWGQGTQVTVS
chain 2: GPPCPPCPAPEFLGGPSVFLFPPKPKDTLMISRTPEVTCVVVDVSQEDPEVQFNWYVDGVEVHNAKTKPREEQFNSTYRVVSVLTVLHQDWLNGKEYKCKVSNKGLPSSIEKTISKAKGQPREPQVCTLPPSQEEMTKNQVSLSCAVKGFYPSDIAVEWESNGQPENNYKTTPPVLDSDGSFFLVSRLTVDKSRWQEGNVFSCSVMHEALHNHYTQKSLSLSLGKGGGGSGGGGSEVQLLESGGGLVQPGGSLRLSCAASGFTFGNYDMAWVRQAPGKRPEWVSSIDTGGDITHYADSVKGRFTISRDNAKNTLYLQMNSLRPEDTAVYWCATDEEYALGPNEFDYYGQGTLVTVSS
EC50: 10 nM | Max effect: > 95%

Continued, values first:

EC50: 9 nM | Max effect: > 95%
B1: CIgG4E1A1(G4S)3 (Fc fusion)
chain 1: GPPCPPCPAPEFLGGPSVFLFPPKPKDTLMISRTPEVTCVVVDVSQEDPEVQFNWYVDGVEVHNAKTKPREEQFNSTYRVVSVLTVLHQDWLNGKEYKCKVSNKGLPSSIEKTISKAKGQPREPQVYTLPPCQEEMTKNQVSLWCLVKGFYPSDIAVEWESNGQPENNYKTTPPVLDSDGSFFLYSRLTVDKSRWQEGNVFSCSVMHEALHNHYTQKSLSLSLGKGGGGSGGGGSGGGGSDVQLQESGGGLVQAGGSLRLSCLASGRTFTTTSGYNMGWFRQAPGKEREFVAGIKWVSGSNRAYAESVKGRFTISRDNAKNTVYLQMNSLKPEDTAVYYCAAATGQSYVPIREYEYVYWGQGTQVTVS
chain 2: GPPCPPCPAPEFLGGPSVFLFPPKPKDTLMISRTPEVTCVVVDVSQEDPEVQFNWYVDGVEVHNAKTKPREEQFNSTYRVVSVLTVLHQDWLNGKEYKCKVSNKGLPSSIEKTISKAKGQPREPQVCTLPPSQEEMTKNQVSLSCAVKGFYPSDIAVEWESNGQPENNYKTTPPVLDSDGSFFLVSRLTVDKSRWQEGNVFSCSVMHEALHNHYTQKSLSLSLGKGGGGSGGGGSGGGGSEVQLLESGGGLVQPGGSLRLSCAASGFTFGNYDMAWVRQAPGKRPEWVSSIDTGGDITHYADSVKGRFTISRDNAKNTLYLQMNSLRPEDTAVYWCATDEEYALGPNEFDYYGQGTLVTVSS

EC50: 1000 nM | Max effect: 50%
B3: CIgG4E2A1(G4S)1 (Fc fusion)
chain 1: GPPCPPCPAPEFLGGPSVFLFPPKPKDTLMISRTPEVTCVVVDVSQEDPEVQFNWYVDGVEVHNAKTKPREEQFNSTYRVVSVLTVLHQDWLNGKEYKCKVSNKGLPSSIEKTISKAKGQPREPQVYTLPPCQEEMTKNQVSLWCLVKGFYPSDIAVEWESNGQPENNYKTTPPVLDSDGSFFLYSRLTVDKSRWQEGNVFSCSVMHEALHNHYTQKSLSLSLGKGGGGSDVQLQESGGGLVQAGGSLRLSCAASGRTISRYAVGWFRRPPAKEREFIGINWSGGSTTYADSAEGRFIISRDNAKNTVYLQMNSLKPEDTAVYYCAVPSVLVQGGISNPSQYDYWGQGTQVTVS
chain 2: B2 chain 2

EC50: 480 nM | Max effect: 65%
B5: CIgG4E1A1(RS) (Fc fusion)
chain 1: GPPCPPCPAPEFLGGPSVFLFPPKPKDTLMISRTPEVTCVVVDVSQEDPEVQFNWYVDGVEVHNAKTKPREEQFNSTYRVVSVLTVLHQDWLNGKEYKCKVSNKGLPSSIEKTISKAKGQPREPQVYTLPPCQEEMTKNQVSLWCLVKGFYPSDIAVEWESNGQPENNYKTTPPVLDSDGSFFLYSRLTVDKSRWQEGNVFSCSVMHEALHNHYTQKSLSLSLGKRSDVQLQESGGGLVQAGGSLRLSCLASGRTFTTTSGYNMGWFRQAPGKEREFVAGIKWVSGSNRAYAESVKGRFTISRDNAKNTVYLQMNSLKPEDTAVYYCAAATGQSYVPIREYEYVYWGQGTQVTVS
chain 2: GPPCPPCPAPEFLGGPSVFLFPPKPKDTLMISRTPEVTCVVVDVSQEDPEVQFNWYVDGVEVHNAKTKPREEQFNSTYRVVSVLTVLHQDWLNGKEYKCKVSNKGLPSSIEKTISKAKGQPREPQVCTLPPSQEEMTKNQVSLSCAVKGFYPSDIAVEWESNGQPENNYKTTPPVLDSDGSFFLVSRLTVDKSRWQEGNVFSCSVMHEALHNHYTQKSLSLSLGKRSEVQLLESGGGLVQPGGSLRLSCAASGFTFGNYDMAWVRQAPGKRPEWVSSIDTGGDITHYADSVKGRFTISRDNAKNTLYLQMNSLRPEDTAVYWCATDEEYALGPNEFDYYGQGTLVTVSS

Max effect: 25%
B6: CIgG4E2A1(RS) (Fc fusion)
chain 1: GPPCPPCPAPEFLGGPSVFLFPPKPKDTLMISRTPEVTCVVVDVSQEDPEVQFNWYVDGVEVHNAKTKPREEQFNSTYRVVSVLTVLHQDWLNGKEYKCKVSNKGLPSSIEKTISKAKGQPREPQVYTLPPCQEEMTKNQVSLWCLVKGFYPSDIAVEWESNGQPENNYKTTPPVLDSDGSFFLYSRLTVDKSRWQEGNVFSCSVMHEALHNHYTQKSLSLSLGKRSDVQLQESGGGLVQAGGSLRLSCAASGRTISRYAVGWFRRPPAKEREFIGINWSGGSTTYADSAEGRFIISRDNAKNTVYLQMNSLKPEDTAVYYCAVPSVLVQGGISNPSQYDYWGQGTQVTVS
chain 2: B5 chain 2
